# Reference: PMC3937304, “The Secreted Triose Phosphate Isomerase of Brugia malayi Is Required to Sustain Microfilaria Production In Vivo” (PLoS Pathogens, 2014)
# Test system: O=C(CO)COP(=O)(O)O
# Assay: purified protein
# Conditions: DHAP to G3P direction, 100 mM TEA-HCl pH 7.6, 1 mM EDTA, 1 mM NAD+, 5 mM disodium hydrogen arsenate, 25 °C, 0.16-10 mM DHAP
row,Substance,Km [µM]
1,recombinant Bm-TPI (Brugia malayi),1800
2,recombinant Ls-TPI (Litomosoides sigmodontis),1933
